Patent US20220025021A1 (BETH ISRAEL DEACONESS MEDICAL CENTER, published 2022)

How the values were obtained:
Test in all cases: cell-based or functional assay
[1] = target: HIV-1 pseudovirus 263-8 (envelope glycoprotein) (HIV-1)
[2] = target: HIV-1 pseudovirus SC05.8C11.2344 (envelope glycoprotein) (HIV-1)
[3] = target: HIV-1 pseudovirus X1193_c1 (envelope glycoprotein) (HIV-1)
[4] = target: HIV-1 pseudovirus Ce1176_A3 (envelope glycoprotein) (HIV-1)
[5] = target: HIV-1 pseudovirus AC10.0.29 (envelope glycoprotein) (HIV-1)
[6] = target: HIV-1 pseudovirus 6952.v1.c20 (envelope glycoprotein) (HIV-1)

Row | Binder | neutralization IC50 [1] | neutralization IC80 [1] | neutralization IC50 [2] | neutralization IC80 [2] | neutralization IC50 [3] | neutralization IC80 [3] | neutralization IC50 [4] | neutralization IC80 [4] | neutralization IC50 [5] | neutralization IC80 [5] | neutralization IC50 [6] | neutralization IC80 [6]
1 | MS-112 (antibody) VH: not shown VL: DFVLTQSPHSLSVTPGEPASISCKSSHSLIHGDRNNYLAWYVQKPGRSPQLLIYLASSRASGVPDRFSGSGSGKDFTLKISRVEAEDVGTYYCMQGRESPWTFGQGTKVDIKRTVAAPSVFIFPPSDEQLKSGTASVVCLLNNFYPREAKVQWKVDNALQSGNSQESVTEQDSKDSTYSLSSTLTLSKADYEKHKVYACEVTHQGLSSPVTKSFNRGEC | 0.013 µg/mL | 0.037 µg/mL | 0.501 µg/mL | 1.68 µg/mL | 0.069 µg/mL | 0.293 µg/mL | 0.068 µg/mL | 2.03 µg/mL | 0.056 µg/mL | 0.262 µg/mL | 0.16 µg/mL | 1.47 µg/mL
2 | MS-113 (antibody) VH: not shown VL: DIVLTQSPLSLSVTPGEPASISCKSSHSLIHGDRNNYLAWYVQKPGRSPQLLIYLASSRASGVPDRFSGSGSGKDFTLKISRVETEDVGTYYCMQGRESPWTFGQGTKVDIKRTVAAPSVFIFPPSDEQLKSGTASVVCLLNNFYPREAKVQWKVDNALQSGNSQESVTEQDSKDSTYSLSSTLTLSKADYEKHKVYACEVTHQGLSSPVTKSFNRGEC | 0.018 µg/mL | 0.052 µg/mL | 0.573 µg/mL | 1.94 µg/mL | 0.098 µg/mL | 0.421 µg/mL | 0.182 µg/mL | 6.05 µg/mL | 0.052 µg/mL | 0.245 µg/mL | 0.351 µg/mL | 5.03 µg/mL
3 | MS-115 (antibody) VH: not shown VL: DIVLTQSPLSLSVTPGESASISCKSSHSLIHGDRNNYLAWYVQKPGRSPQLLIYLASSRASGVPDRFSGSGSGKDFTLKISRVEAEDVGTYYCMQGRESPWTFGQGTKVDIKRTVAAPSVFIFPPSDEQLKSGTASVVCLLNNFYPREAKVQWKVDNALQSGNSQESVTEQDSKDSTYSLSSTLTLSKADYEKHKVYACEVTHQGLSSPVTKSFNRGEC | 0.013 µg/mL | 0.037 µg/mL | 0.436 µg/mL | 1.51 µg/mL | 0.08 µg/mL | 0.274 µg/mL | 0.18 µg/mL | 6.3 µg/mL | 0.049 µg/mL | 0.249 µg/mL | 0.303 µg/mL | 4.7 µg/mL
4 | MS-118 (antibody) VH: not shown VL: DIVLTQSPLSLSVTPGEPASISCKSSHSLIHGDRNNYLAWYVQKPGRSPQLLIYLASSRASGVPDRFSGSGSGKDFTLKISRVEAEDVGTYYCMQGRESPWTFGQGTKVDIKRTVAAPSVFIFPPSDEQLKSGTASVVCLLNNFYPREAKVQWKVDNALQSGNSQESVTEQDSKDSTYSLSSTLTLSKADYEKHKVYACEVTHQGLSSPVTKSFNRGEC | 0.011 µg/mL | 0.039 µg/mL | 0.449 µg/mL | 1.54 µg/mL | 0.085 µg/mL | 0.287 µg/mL | 0.26 µg/mL | 8.12 µg/mL | 0.056 µg/mL | 0.273 µg/mL | 0.392 µg/mL | 12.2 µg/mL
5 | MS-114 (antibody) VH: not shown VL: DIVLTQSPLSLSVTPGEPASISCKSSHSLIHGDRNNYLAWYVQKPGRSPQLLIYLASSRASGVPDRFSGSGSDKDFTLKISRVEAEDVGTYYCMQGRESPWTFGQGTKVDIKRTVAAPSVFIFPPSDEQLKSGTASVVCLLNNFYPREAKVQWKVDNALQSGNSQESVTEQDSKDSTYSLSSTLTLSKADYEKHKVYACEVTHQGLSSPVTKSFNRGEC | 0.018 µg/mL | 0.066 µg/mL | 0.81 µg/mL | 3.86 µg/mL | 0.124 µg/mL | 0.404 µg/mL | 0.139 µg/mL | 7.39 µg/mL | 0.066 µg/mL | 0.313 µg/mL | 0.146 µg/mL | 1.37 µg/mL
6 | MS-116 (antibody) VH: not shown VL: DIVLTQSPHSLSVTPGEPASISCKSSHSLIHGDRNNYLAWYVQKPGRSPQLLIYLASSRASGVPDRFSGSGSGKDFTLKISRVEAEDVGTYYCMQGRESPWTFGQGTKVDIKRTVAAPSVFIFPPSDEQLKSGTASVVCLLNNFYPREAKVQWKVDNALQSGNSQESVTEQDSKDSTYSLSSTLTLSKADYEKHKVYACEVTHQGLSSPVTKSFNRGEC | 0.011 µg/mL | 0.042 µg/mL | 0.456 µg/mL | 1.62 µg/mL | 0.064 µg/mL | 0.222 µg/mL | 0.145 µg/mL | 3.12 µg/mL | 0.052 µg/mL | 0.258 µg/mL | 0.341 µg/mL | 7.51 µg/mL
7 | MS-117 (antibody) VH: not shown VL: DFVLTQSPLSLSVTPGEPASISCKSSHSLIHGDRNNYLAWYVQKPGRSPQLLIYLASSRASGVPDRFSGSGSGKDFTLKISRVEAEDVGTYYCMQGRESPWTFGQGTKVDIKRTVAAPSVFIFPPSDEQLKSGTASVVCLLNNFYPREAKVQWKVDNALQSGNSQESVTEQDSKDSTYSLSSTLTLSKADYEKHKVYACEVTHQGLSSPVTKSFNRGEC | 0.01 µg/mL | 0.029 µg/mL | 0.432 µg/mL | 1.48 µg/mL | 0.064 µg/mL | 0.226 µg/mL | 0.113 µg/mL | 2.17 µg/mL | 0.051 µg/mL | 0.252 µg/mL | 0.208 µg/mL | 3.84 µg/mL
